Test results reported in patent US20160355553A1 (Janssen / Centocor, published 2016).

Assays:
[1] = target: H3 Mini-HA cluster 1+5 N405E (influenza A virus H3N2, UniProt O11283 17-566); assay: FACS on HEK293F [D00010 FIG. 8B]
[2] = target: H3 Mini-HA cluster 1+5 N405A (influenza A virus H3N2, UniProt O11283 17-566); assay: FACS on HEK293F [D00010 FIG. 8B]
[3] = target: H3 Mini-HA cluster 1+5 N405D (influenza A virus H3N2, UniProt O11283 17-566); assay: FACS on HEK293F [D00010 FIG. 8B]
[4] = target: miniHA cluster1+4 (A/Brisbane/59/2007) (influenza A virus H1N1, UniProt A8C8J4 18-565); assay: FACS on HEK293F
[5] = target: full-length HA of H1 A/Brisbane/59/2007 with cleavage site mutation R343Q (influenza A virus H1N1, UniProt B4URD6 18-565); assay: FACS, HEK293F cells
[6] = target: H3 Mini-HA cluster 1+2+3+4+5+6+7-N405D (influenza A virus H3N2, UniProt O11283 17-566); assay: FACS, HEK293F cells
[7] = target: H3 Mini-HA cluster 1+2+3+4+5+6+7-N405E (influenza A virus H3N2, UniProt O11283 17-566); assay: FACS, HEK293F cells
[8] = target: H3 Mini-HA cluster 1+2+3+4+5+6+7-N405A (influenza A virus H3N2, UniProt O11283 17-566); assay: FACS, HEK293F cells

| Binder | binding result [1] | binding result [2] | binding result [3] | binding result [4] | binding result [5] | binding result [6] | binding result [7] | binding result [8] |
| --- | --- | --- | --- | --- | --- | --- | --- | --- |
| CR6261 (antibody, V domains shown) VH: EVQLVESGAEVKKPGSSVKVSCKASGGPFRSYAISWVRQAPGQGPEWMGGIIPIFGTTKYAPKFQGRVTITADDFAGTVYMELSSLRSEDTAMYYCAKHMGYQVRETMDVWGKGTTVTVSS VL: QSVLTQPPSVSAAPGQKVTISCSGSSSNIGNDYVSWYQQLPGTAPKLLIYDNNKRPSGIPDRFSGSKSGTSATLGITGLQTGDEANYYCATWDRRPTAYVVFGGGTKLTVLG | no binding (tested: 5 ug/ml) | no binding (tested: 5 ug/ml) | no binding (tested: 5 ug/ml) | – | – | – | – | – |
| CR8057 (antibody, V domains shown) VH: EVQLVESGGGLVQPGGSLRLSCAASGFTDSVIFMSWVRQAPGKGLECVSIIYIDDSTYYADSVKGRFTISRHNSMGTVFLEMNSLRPDDTAVYYCATESGDFGDQTGPYHYYAMDV VL: QSALTQPASVSGSPGQSITISCTGSSGDIGGYNAVSWYQHHPGKAPKLMIYEVTSRPSGVSDRFSASRSGDTASLTVSGLQAEDEAHYYCCSFADSNILI | no binding (tested: 5 ug/ml) | no binding (tested: 5 ug/ml) | no binding (tested: 5 ug/ml) | no binding (tested: 5 ug/ml) | no binding (tested: 5 microgram/ml) | – | – | – |
| CR9114 (antibody, V domains shown) VH: QVQLVQSGAEVKKPGSSVKVSCKSSGGTSNNYAISWVRQAPGQGLDWMGGISPIFGSTAYAQKFQGRVTISADIFSNTAYMELNSLTSEDTAVYFCARHGNYYYYSGMDVWGQGTTVTVSS VL: SYVLTQPPAVSGTPGQRVTISCSGSDSNIGRRSVNWYQQFPGTAPKLLIYSNDQRPSVVPDRFSGSKSGTSASLAISGLQSEDEAEYYCAAWDDSLKGAVFGGGTQLTVL | no binding (tested: 5 ug/ml) | no binding (tested: 5 ug/ml) | no binding (tested: 5 ug/ml) | – | – | no binding (tested: 5 microgram/ml) | no binding (tested: 5 microgram/ml) | no binding (tested: 5 microgram/ml) |
